Test results as given in paper doi:10.1101/2024.03.08.584095, “LPOR and the membranes – evolutionary pathway towards prolamellar body formation” (bioRxiv, 2024).

Biological target: the molecule itself
Experiment: negative-stain electron microscopy; purified SynPOR with PG lipids and either Chlide + NADPH or Pchlide + NADP+; search for large oligomers; 37 mM sodium phosphate pH 7.1, 225 mM NaCl, 150 mM imidazole, 5 mM beta-mercaptoethanol, 25% glycerol

B1: light-dependent protochlorophyllide oxidoreductase from Synechocystis (SynPOR) (enzyme, UniProt Q59987 1-322, looked up)
chain: MEQPMKPTVIITGASSGVGLYGAKALIDKGWHVIMACRNLDKTQKVADELGFPKDSYTIIKLDLGYLDSVRRFVAQFRELGRPLKALVCNAAVYFPLLDEPLWSADDYELSVATNHLGHFLLCNLLLEDLKACPDADKRLIILGTVTANSKELGGKIPIPAPPDLGNFEGFEAGFKKPIAMINNKKFKSGKAYKDSKLCNMLTTRELHRRFHQETGIVFNSLYPGCVADTPLFRNHYSLFRTIFPWFQKNVTKGYVSQELAGERVAMVVADDKFKDSGVHWSWGNRQQAGREAFVQELSEQGSDAQKAQRMWDLSEKLVGLV
notes: light-dependent protochlorophyllide oxidoreductase (SynPOR), Synechocystis, Uniprot Q59987; The reaction buffer holds 150 mM imidazole, so a His tag is likely (surmise); In the assay it stood with PG liposomes, pigment (Pchlide or Chlide) and NADP+ or NADPH; also called cyanobacterial LPOR; LPOR
- binding result: binds
